This data set deals with the molecule itself. The data set is described as follows: single-molecule pull-down.

B1: PHB-SDmut, YFP-tagged (PHB with mutated START domain) (natural protein)
chain: MMMVHSMSRDMMNRESPDKGLDSGKYVRYTPEQVEALERVYTECPKPSSLRRQQLIRECPILSNIEPKQIKVWFQNRRCREKQRKEAARLQTVNRKLNAMNKLLMEENDRLQKQVSNLVYENGHMKHQLHTASGTTTDNSCESVVVSGQQHQQQNPNPQHQQRDANNPAGLLSIAEEALAEFLSKATGTAVDWVQMIGMKPGPDSIGIVAISRNCSGIAARACGLVSLEPMKVAEILKDRPSWLRDCRSVDTLSVIPAGNGGTIELIYTQMYAPTTLAAAGAVVGAGYSTCLEDGSYVVCERSLTSATGGPTGPPSSNFVVAAGVPSGFLIRPCDGGGSILHIVDHVDLDAWSVPEVMRPLYESSKILAQKMTVAALRHVRQIAQETSGEVQYGGGRQPAVLRTFSQRLCRGFNDAVNGFVDDGWSPMGSDGAEDVTVMINLSPGKFGGSQYGNSFLPSFGSGVLCAKASMLLQNVPPAVLVRFLREHRSEWADYGVDAYAAASLRASPFAVPCARAGGFPSNQVILPLAQTVEHEESLEVVRLEGHAYSPEDMGLARDMYLLQLCSGVDENVVGGCAQLVFAPIDESFADDAPLLPSGFRIIPLEQKSTPNGASANRTLDLASALEGSTRQAGEADPNGCNFRSVLTIAFQFTFDNHSRDSVASMARQYVRSIVGSIQRVALAIAPRPGSNISPISVPTSPEALTLVRWISRSYSLHTGADLFGSDSQTSGDTLLHQLWNHSDAILCCSLKTNASPVFTFANQTGLDMLETTLVALQDIMLDKTLDEPGRKALCSEFPKIMQQGYAHLPAGVCASSMGRMVSYEQATVWKVLEDDESNHCLAFMFVNWSFV
Consider B1, for which the stoichiometry N (usually the number of molecules, sites or subunits per partner or assembly) stood at 2.

B2: PHB-Delta, YFP-tagged (PHB with the START domain replaced by the 21-nt miR166 recognition site) (natural protein)
chain: MMMVHSMSRDMMNRESPDKGLDSGKYVRYTPEQVEALERVYTECPKPSSLRRQQLIRECPILSNIEPKQIKVWFQNRRCREKQRKEAARLQTVNRKLNAMNKLLMEENDRLQKQVSNLVYENGHMKHQLHTASGTTTDNSCESVVVSGQQHQQQNPNPQHQQRDAGMKPGPDVRQIAQETSGEVQYGGGRQPAVLRTFSQRLCRGFNDAVNGFVDDGWSPMGSDGAEDVTVMINLSPGKFGGSQYGNSFLPSFGSGVLCAKASMLLQNVPPAVLVRFLREHRSEWADYGVDAYAAASLRASPFAVPCARAGGFPSNQVILPLAQTVEHEESLEVVRLEGHAYSPEDMGLARDMYLLQLCSGVDENVVGGCAQLVFAPIDESFADDAPLLPSGFRIIPLEQKSTPNGASANRTLDLASALEGSTRQAGEADPNGCNFRSVLTIAFQFTFDNHSRDSVASMARQYVRSIVGSIQRVALAIAPRPGSNISPISVPTSPEALTLVRWISRSYSLHTGADLFGSDSQTSGDTLLHQLWNHSDAILCCSLKTNASPVFTFANQTGLDMLETTLVALQDIMLDKTLDEPGRKALCSEFPKIMQQGYAHLPAGVCASSMGRMVSYEQATVWKVLEDDESNHCLAFMFVNWSFV
In the case of B2, the “stoichiometry N” value stood at 2.

These data come from publication PMC10226595 (The Plant Cell, 2023).
